test: soluble on expression in E. coli; label from the status in PepcDB or PDB records

Sequence	soluble on expression in E. coli
MFASKDINDLIAIVAGLRNRESGCIWNIKQTFESLIPYMLEEVYEVIDAIERKNRTDLCDELGDLLLQVVYHATIAQEEGSFTFEDVVYAITSKMIRRHPHVFGNAEQKKRGFIEDEWERIKKTERAEQNKCYEAVNLPTNSTTSILEKIKKLQPAHQEALALQKAAATVGFNWHESHKFFAKIEEEINELKDAIKNDKTSDIEAEFGDLYFSLLNLALHLNIDSQKALKKTNTKFRNRFTYIEESLYTQSKTLANTSLKEMESLWNKAKNKK	not soluble
MFDDLHEYLDFLARKNDLITVNDQVDPDLELTYILSEEERIGRGRTIQFNRVKGSEVPAVGNLFSTYEKMKTVLGDDPYQIGRRIVEIAQPPGDSESFIGKGIEMMRELGGLRPKIAGSLPSNYDELDRVDLFRYPICKTWPQDGGKFITLPLVITKDPETGTRNMGMYRMQVYDSETTGMHWHIHKGGSENFQKEAQKHEVMDVAVVIGSDPLTIFSAVAPLPNGIDEFMFRGLVSKKRFDLVKGKTVNLEYPRNFEIVLEGYIDPAETRIEGPFGDHTGYYSLEEQFPVFHIKKIIERRDRIYPTTIVGKLWHEDVIMGKTIERMFLPLIQMVMPEVVDINTMEEAVFHNMVIVSIKKRYPGHAKKVMFGLWGMGQMMFSKIIVVVDDDINVHNRKEVIWAMTTRIDPDRDVIIIPGTVTDSLDHASPIFNYGSKMGIDATKKRPDEGYQRRWPDVLEMPEDVTNRVRDLMKKNGMTQLEHHHHHH	not soluble
MFDGEDLKKIFAMDGFLRNIEFEVSYISEGSIEIKVPLKENLMRVGDIMNGGAIMAISDAIGGLTVMTYGSVINQVTVNFNTEFIRPIGTGPVIFRSSMVRIGKNIAYVDVAAIDGNGQLCSKSMGTYYIYR	soluble
MFDIPGLSTGDFHGFPSLLIQTPFSHAAISLFGGQLLSFVPSGGEEVIWLSPLVQPPPTAIRGGIPICWPYFGRQGQRDTMPAHGFVRTVPWQQVESCQENDGSLFLVLAPPPLKHLGLHLRMTLRIGRTLEQELATENISHAPISFTQALHNYFRVSNALQVTVQGLDGVEYLDKFEGYTQRHRQQGHWTLQDPRDPGRADRIYVDTSGHYVLVDPLFSRRIVLTTEGSHSLVVWNPGHAGASNMIDVADGWRDYLCLEPANAGPDEIELLPGARHVLRQSIAIAPL	soluble
MFEIATAKVDNMRVSIVGGGFAGLAAAQLAEEVTSDVHLYDKGTYSGDRRGAWGEMVWDYSQLPLDRHVPGYVREATTGIFIGSDGKTAINVPDGVILNRGELEKHWASTLEETEIIADAEVDEAEFRKLSAESDLLIDATGQFPISRRFTSLSYDVACPTLSGRIEADFSHLYPEPRALAYENYFLWIVPQSPDEATIGLGCQEDKSPAELYEDMRQLLAEVDIEPPERETLYSGTDVSNGLRSLSDCSYELNDCTVHIAGDAIGLANRLTGFGMVHAAQSGQAAVRSFVQGESYTRRLLCQNFWTKAVTGVVSPVHHTIGLDGIARLAKSDIEYQESFEPQQPTDILSAVRIFILEHHHHHH	not soluble
MFERNREATMIFNIQRYSTHDGPGIRTVVFLKGCSLGCRWCQNPESRARTQDLLYDPRLCLEGCKLCAKTAPEVIERALNGLLIHREKLTPEHFTALTDCCPTQALTVCGEVKSVEEIMATVLRDKPFYDRSGGGLTLSGGEPFMQPEMATALLQASHEAGIHTAVETCLHVPWKYIAPSLPYIDLFLADLKHVADAPFKQWTDGNAARVLDNLKKLAAAGKKIIIRVPLIQGFNADETSVKAITDFAADELHVSEIHFLPYHTLGINKYHLLNLPYDAPEKPLDAPELLDFAQQYACQKGLTATLRG	not soluble
MFFRVKTTPTKAKPYVKPQNANNLQNNFNPRKIFTEYISKEETDAGIEDGSMFKGVLRINPKNYQECFLDHPKGTNHPDVLVLGQDRNRAMQGDVVAVKIKPKEDWLVNYVEYVKWWAEHKKGDRNSGKTDNNSPNKTEKRCLRNEIQDNGVTSDEVPDSCLITIGAIVHILEKKHFRVAAGKLQLMPNSANPNVLFVATDSRVPRILIPKSDVDKEFFSRPKDFERFLYTAKITDWRAESVYADGRLVKLLGMSGEIDTETERIVYEHQIDHREFSDECLESLPITTAENWKVPDAEFEYRRDFRSDIVFTIDPKTARDLDDALHAKHIDDCDGKGTPGLEIGVHIADVTFFLKEGTELDKWASERGNSTYLSQTVIPMLPRILCEQLCSLNPGVDRLSFSTVFKMSYEAELYDVWFGRSVIRSRVKLAYEHAQDFIENPEKDFTCDELPDISDGNTPFEIKEKTLMLHRIAQVLRQKREDSGALRIELPRLKFALDEDKKPQGVSIYEIKDSNKLVEEFMLLANMEVAKKIAENFPEHALLRNHPPPKEKMIKDVAEQCARIGFPLDGRTSGLLSTSLRKYQGKSRLDMCIRQVISSLTIKPMQQAKYFCTFEMPLSFYHHFALNVDHYTHFTSPIRRYPDVIVHRQLAAALGYNERSERVPEEIQEICTRCNDTKLASKEASDESAMLYFGVFIHQTGPMKCQAVVLGVMDLSFDVLIVEYGVVKRVYVDKMKRDFNKSTEKLTIYWPADPNAESGNREEFSSSIQMCNVVYVILVPYKSIEVSATIVRPSLEQRNILKSTLKDMKETGSTILQ	not soluble
MFFVSLLFEFFDSIFEIAVMLGFEMLCRMAADSSVLHCLVAAYMGLGKLPATTEKHTYAQQDKSQSDQQKRSQKNCSHLLLYLRNTKVRFSYPQRSTINNS	not soluble
MFGFPTATLLDCHGRYAQNVAFFNVMTEAHHKYDHSEATGSSSWDIQNSFRREKLEQKSPDSKTLQEDSPGVRQRVYECQECGKSFRQKGSLTLHERIHTGQKPFECTHCGKSFRAKGNLVTHQRIHTGEKPYQCKECGKSFSQRGSLAVHERLHTGQKPYECAICQRSFRNQSNLAVHRRVHSGEKPYRCDQCGKAFSQKGSLIVHIRVHTGLKPYACTQCRKSFHTRGNCILHGKIHTGETPYLCGQCGKSFTQRGSLAVHQRSCSQRLTL	soluble
MFGIDGLEFLVILLVLIVVVGPKDLPKMLKTMARAIAYVRSTANEFRHQFDDAIKQAELDDLQKTLSDMNDFNPDKKLTGILNPMQDIRGDILNNFDVNTTHHKLEKDQENFECNENKTNEDLDVPVDAHSSGSVFVTSKDKESAS	not soluble
MFHLSSLICCGCKPNFLGFERHHPFYDNDKKRICSSECGHSLCKKCFETYKNCPICAKPLVRIDNFMAREIYAFLKKTPMIVFDMWWNRSQNPSSTGRCSTCHKYDRILRWCITCEKDLKNSEAEWRRPKIEPNTDLQKELIKVSKERFRFGILANRVICSDCFLEHHAGHRVIFLDEMISALTEYSISDSATHLVQRFLWREIEERRGKCLLRTMRMKRAFLKLFYLACDSDLTDDYNDLPKFFERLDDWKVPDGYMEKVRKNLEHQFASANVPWKDCECRYAMRIMNDMFSFKNQIEKLFVSIVNDLDLHEITECPFKNSQITDMLQKTKKMVDIQLYKLYTLFCWNNYKDGVFELFNNSNRLPTKCCLCKMSTCAECWDEEPHKCGICDDATTSSRTDPDIVVLELVKHYKENCISLLEAWWECDAAQLGFCLNCASYTEDLEICVYCELDVERSALKTEVETSAEFTKDMQLRFTYKGLSGFPMRWQCSDCTTRHRKPTADVWNKGCNHFRYRSMYASVSSECFAHNHKSPCLRLKEIKNYDLAMKAATFGLVFKIIKEGIKEHVGSEHARKEILET	not soluble
MFKRVHLIVLDSVGIGEAPDAEKFGDVGSDTLGHIAKEAGLTIPHLEKLGLGTIAPLTGVKAVADHDGYATKLEEISVGKDTMTGHWEIMGLNIKKPFRVFPNGFPEELLKQIEDFSGRKVVCNKPYSGTAVIDDYGEHQMKTGDLIVYTSADPVLQIAAHEDIIPLEELYKICQYVRDITKDEPYMIGRIIARPYVGEPGNFTRTSNRHDYALDPFGHTVLDSLKENGNDVIAVGKINDIFNGQGITEAIRTKSNMDGVDQLLTVMNKEFTGLSFTNLVDFDALYGHRRDVKGYAKAIEDFDGRLPEIMAAMAEDDLLLITADHGNDPTFPGTDHTREYVPLLAYSKKMTKQGSLPQGFYSDISATIAENFEVPATENGQSFLNQLQ	not soluble
MFLLQAPLQRRILEIGKKHGITELHPDVVSYVSHATQQRLQNLVEKISETAQQKNFSYKDDDRYEQASDVRAQLK	soluble
MFMNKPFGSKRCEPFHESEHLCEAFAITEAILARYQRGKRSFTSSEKSGLAALIKRIPYDILVEVLDQSGFTPTSNATPPVDYLAMMEHTMTHGASITHALQYLNDLMTKCTGCPGIRTYYHNPNDDVLADPVHDTAALIDETTAVGKSVVTKQYLNIAGAHYIPLIHGDIVVGCVEVPRFSGNLEKLPSFPSLIRAVTCTAHKFIEEARINWNREKAEAMLQMATRLARDNLDETVLASSIMNTVKSLTESARCSLFLVKDDKLEAHFEDGNVVSIPKGTGIVGYVAQTGETVNIVDAYADDRFNREVDKATGYRTKTILCMPVMYEGTIVAVTQLINKLDLTTESGLRLPRVFGKRDEELFQTFSMFAGASLRNCRINDRLLKEKKKSDVILDVVTVLSNTDIRDVDGIVRHALHGAKKLLNADRSTLFLVDKERNELCSRMADSVAGKEIRFPCGQGIAGTVAASGVGENIQDAYQDPRFNREVDKQLGYRTQTILCEPIILNGEILAVVQLVNKLDTSGEVTVFTEDDRDTFRVFSLFAGISINNSHLLEFAVKAGREVMELNEHRATLFNKNVPSRAVKRVTAITKVEREAVLVCELPSFDVTDVEFDLFRARESTDKPLDVAAAIAYRLLLGSGLPQKFGCSDEVLLNFILQCRKKYRNVPYHNFYHVVDVCQTIHTFLYRGNVYEKLTELECFVLLITALVHDLDHMGLNNSFYLKTESPLGILSSASGNTSVLEVHHCNLAVEILSDPESDVFDGLEGAERTLAFRSMIDCVLATDMAKHGSALEAFLASAADQSSDEAAFHRMTMEIILKAGDISNVTKPFDISRQWAMAVTEEFYRQGDMEKERGVEVLPMFDRSKNMELAKGQIGFIDFVAAPFFQKIVDACLQGMQWTVDRIKSNRAQWERVLETRLSTSSGNNSSTR	not soluble
MFPSPTPPLVSPTAVIEEENDDSVREFSRTLKSRLNCAMVKLSKEHEQVALIPPPPTEKIRKGSYSNKFAAKHRRCHSLDESKKFLSSLEDSSAHAAFLKAISSKHAKSNRVDNVNVSPLRWSSHRRTQSTQENSLQEVVAIDTLLKMSSSD	not soluble
MFRPASIAVTAALCACALPALASETLNSRTDVLAALEAGYDVSVSTDLSRCTPEEGTPVSRTRGGRHIDAYRITEDGNVAFSGAHFTVANDGKPIQQFMRYQLRPDGSVRFTTYMYDLPGLQQRGPVLAYQCAFNEGARFHADLEHHHHHH	soluble
MFWRSIPSLQTLLAAGMGLLMLEIVMAHQPAQAESCTVDPFGSEVCLPDSTPEEPDKPKRSNQSKKSNKPDKSKRMVIVPSCFGPCTQFPPAPPYRQFQEVMEEAALKATPDATPEPRPAEPLRPLWFKSDQLDDVEAETYLERTLDRNDMAQLNAVGIEADTDADGMVITVDGLSYGEVLEPHGLLFTNEVNEPGLNAWVRGFGGGSSNGAAGDRYANFSNGGSQIGFDIPINDETRIGLFGTYAVMNGTDGARGSWDSDGWGGGAYAEYWTSDFYLRGMVSAGGYDGEHRRKIDGETAKGDRSGNSWTGVLNIGAPLQSGDWIIEPQAQLSYTNTSLDKFSEHGANRRDRLRFHEMEVDQLGSELSVKFAIPIRDGERSLLLPSLRVGWAADWGMSGDHQKVSYLESGKSQRWDVNGNDDHAALVELGLDYTTFNFQDTSMGVYARGGGLLWAGNRGTSWQVQGGLNFKF	not soluble

From the DeepSol protein solubility set
